Values quoted from earlier work in publication PMC6359047.

Target: MT1-MMP (Homo sapiens) (UniProt P50281)

Sequence of TIMP-1 (P01033 24-207): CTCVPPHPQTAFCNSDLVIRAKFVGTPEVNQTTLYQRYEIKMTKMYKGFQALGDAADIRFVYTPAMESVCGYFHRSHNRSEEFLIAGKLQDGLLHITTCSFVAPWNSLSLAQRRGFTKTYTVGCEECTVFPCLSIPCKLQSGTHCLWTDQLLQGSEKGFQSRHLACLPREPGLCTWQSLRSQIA

In the case of TIMP-1 (from UniProt P01033), the Ki is given as 178 nM.
